Assay results reported in PMC7430671.
Residue numbers refer to the chain shown, from its start.

Tests used:
[1] = target: T1, RapZquad (purified) K270A;K281A;R282A;K283A (Escherichia coli) (UniProt P0A894); test: EMSA; conditions: EMSA on non-denaturing PAA gels, phospho-imaging; buffer, pH and temperature not given here (as in Göpel 2016; Durica-Mitic and Görke 2019)
T1 sequence: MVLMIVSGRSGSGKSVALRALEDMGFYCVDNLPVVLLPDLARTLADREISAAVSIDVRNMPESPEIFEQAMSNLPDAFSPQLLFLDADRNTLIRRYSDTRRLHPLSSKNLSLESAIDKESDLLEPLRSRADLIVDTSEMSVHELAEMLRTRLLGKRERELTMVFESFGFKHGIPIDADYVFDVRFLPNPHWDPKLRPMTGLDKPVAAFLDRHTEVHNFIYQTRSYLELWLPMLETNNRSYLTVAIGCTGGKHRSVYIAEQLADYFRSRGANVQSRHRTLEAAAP

[2] = target: T2, RapZCTD (Escherichia coli) (UniProt P0A894); test: EMSA; conditions: EMSA on non-denaturing PAA gels, phospho-imaging; buffer, pH and temperature not given here (as in Göpel 2016; Durica-Mitic and Görke 2019)
T2 sequence: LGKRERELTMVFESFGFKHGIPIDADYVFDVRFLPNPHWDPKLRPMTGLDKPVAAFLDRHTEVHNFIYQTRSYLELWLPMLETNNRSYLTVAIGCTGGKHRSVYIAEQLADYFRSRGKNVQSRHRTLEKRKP

[3] = target: T3, RapZ1-279 (purified) del280-284 (Escherichia coli) (UniProt P0A894); test: EMSA; conditions: EMSA on non-denaturing PAA gels, phospho-imaging; buffer, pH and temperature not given here (as in Göpel 2016; Durica-Mitic and Görke 2019)
T3 sequence: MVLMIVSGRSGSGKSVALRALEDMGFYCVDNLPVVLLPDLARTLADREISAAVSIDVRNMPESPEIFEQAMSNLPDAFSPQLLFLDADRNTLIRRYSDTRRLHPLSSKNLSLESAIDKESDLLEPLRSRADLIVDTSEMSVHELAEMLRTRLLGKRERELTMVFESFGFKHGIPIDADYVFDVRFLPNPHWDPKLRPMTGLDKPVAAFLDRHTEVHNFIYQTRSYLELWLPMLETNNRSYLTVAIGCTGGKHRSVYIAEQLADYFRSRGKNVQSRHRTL

[4] = target: T4, RapZCTD lacking the 5 C-terminal residues del280-284 (Escherichia coli) (UniProt P0A894); test: EMSA; conditions: EMSA on non-denaturing PAA gels, phospho-imaging; buffer, pH and temperature not given here (as in Göpel 2016; Durica-Mitic and Görke 2019)
T4 sequence: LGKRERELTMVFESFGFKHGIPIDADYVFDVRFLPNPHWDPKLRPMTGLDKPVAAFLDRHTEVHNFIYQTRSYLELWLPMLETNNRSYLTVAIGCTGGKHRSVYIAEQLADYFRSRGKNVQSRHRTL

[5] = target: T5, RapZCTDquad K270A;K281A;R282A;K283A (Escherichia coli) (UniProt P0A894); test: EMSA; conditions: EMSA on non-denaturing PAA gels, phospho-imaging; buffer, pH and temperature not given here (as in Göpel 2016; Durica-Mitic and Görke 2019)
T5 sequence: T2 sequence with K118A, K129A, R130A, K131A

[6] = target: RapZ 1-279 T278G L279G (T25 fusion); test: BACTH assay (self-interaction; β-galactosidase activity); conditions: bottom panel; same RapZ1-279 variant fused to T18 and to T25; mean ± SD, n ≥ 2; parent: est. 4100; read off a plot

Chain of RapZ_(1–279), BACTH fusion (P0A894 whole entry T278G/L279G, looked up, the tested form may be a part): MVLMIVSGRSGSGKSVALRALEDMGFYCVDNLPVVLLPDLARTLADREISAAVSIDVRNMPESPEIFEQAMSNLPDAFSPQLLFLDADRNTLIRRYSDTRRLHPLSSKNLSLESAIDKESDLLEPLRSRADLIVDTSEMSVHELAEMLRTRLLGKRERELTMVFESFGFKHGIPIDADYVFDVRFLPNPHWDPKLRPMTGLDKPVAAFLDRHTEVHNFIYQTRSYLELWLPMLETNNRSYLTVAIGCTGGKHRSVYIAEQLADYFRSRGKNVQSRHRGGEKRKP

| Substance | binding [1] | binding [2] | binding [3] | binding [4] | binding [5] | response [6] [Miller units] |
| --- | --- | --- | --- | --- | --- | --- |
| GGGAGAGUAGAUGCUCAUUCCAUCUCUUAUGUUCGCCUUAGUGCCUCAUAAACUCCGGAAUGACGCAGAGCCGUUUACGGUGCUUAUCGUCCACUGACAGAUGUCGCUUAUGCCUCAUCAGACACCAUGGACACAACGUUGAGUGAAGCACCCACUUGUUGUCAUACAGACCUGUUUUAACGCCUGCUCCGUAAUAAGAGCAGGCGUUUUUUU [GlmZ sRNA (in vitro transcript)] | no binding | binds | binds more weakly | no binding | no binding |  |
| RapZ_(1–279), BACTH fusion (from UniProt P0A894) T278G; L279G |  |  |  |  |  | 3600 |
